A word on the Kd: it is the concentration at which binding is half-saturated.

Here are results for two molecules from patent US20230293571A1, “POLYNUCLEOTIDE FOR CANCER TREATMENT, ENCODING 5'-NUCLEOTIDASE MODIFIED PROTEIN” (priority 2020, published 2023).

This assay addresses recombinant CD47 protein (Homo sapiens, UniProt Q08722). The experiment in a line: SPR on CM5 chip conjugated with CD47. The class given is binding. As to conditions: CD47 250 RU. On the procedure:
Specifically, the recombinant CD47 protein was conjugated to the surface of the CM5 chip by a target SPR reaction of 250 RU through an EDC-NHS reaction to be used, and for HBS-P, the sensogram obtained through a process of association for 3 minutes and dissociation for 10 minutes at a flow rate of 30 μL/minutes was analyzed with the BiaEvaluation software using a 1:1 binding model and global fitting.

Chain of recombinant CD47 protein (Q08722 19-323): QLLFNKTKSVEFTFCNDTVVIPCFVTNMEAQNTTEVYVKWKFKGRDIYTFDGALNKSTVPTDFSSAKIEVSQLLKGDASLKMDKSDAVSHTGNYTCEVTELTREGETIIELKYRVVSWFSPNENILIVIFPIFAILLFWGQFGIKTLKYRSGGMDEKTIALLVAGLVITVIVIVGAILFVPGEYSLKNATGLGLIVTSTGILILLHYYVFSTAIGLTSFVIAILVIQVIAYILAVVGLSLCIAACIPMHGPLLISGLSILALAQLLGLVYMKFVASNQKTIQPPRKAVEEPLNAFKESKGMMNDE

Consider “Sirpα: pure Sirpα (SEQ ID NO: 25), water-soluble domain of the original CD47 ligand”, for which the equilibrium dissociation constant (Kd) came out at 290 nM.

B1: SV4-DSPE (conjugate)
chain: MEEELQIIQPDLSVSVAAGESAILHCTITSLFPVGPIQWFRGAGPARVLIYNQRQGPFPRVTTVSETTKRENMDFSISISNITPADAGTYYCIKFRKGSPDTEFLSGAGTELSVRAKPS
For the molecule B1, the kd stood at 0.000256 s⁻¹.
